Measured values as given in US20250064909A1 (MEDIMABBIO, published 2025).
Numbering of substitutions follows the chain as printed. Where two headings read alike, the source gives them in different places.

B1: 7A6 VH2/Vκ2 humanized antibody (human IgG1, kappa) (antibody, V domains shown)
VH: DVQLQESGPGLVKPSQTLSLTCTVTGYSITSDYAWNWIRQPPGKGLEWMGYISYSGSARYNPSLKSRITISRDTSKNQFSLKLSSVTAEDTATYYCARKGYPAYFAYWGQGTLVTVSS
VL: DIVMTQSPSSLSASVGDRVSITCKASQDVSTAVAWYQQKPGQAPRLLIYSASYRYTGVPDRFTGSGSGTDFTLTISSLQAEDVAVYYCQHHYSTPYTFGQGTKLEIKR
notes: Tested as IgG in supernatant of transiently transfected HEK293 EBNA cells
B2: 7A6 VH0/Vκ0 chimeric antibody (human IgG1, kappa) (antibody, V domains shown)
VH: B1 VH with T17S, P41F, K44N, G45K, T69S, S71T, K76M, S80F, K82Q, S84N
VL: DIVMTQSHKFMSTSVGDRVSISCKASQDVSTAVAWYQQKPGQSPELLIYSASYRYTGVPDRFTGSGSGTDFTFTISSVQAEDLAVYYCQHHYSTPYTFGGGTKLEMKR
notes: Mouse 7A6 variable regions on human IgG1/kappa constant regions; also called VH0/Vk0; 7A6 VH0Vk0
B3: 7A6 VH4/Vκ2 humanized antibody (human IgG1, kappa) (antibody, V domains shown)
VH: B1 VH with D1Q, I68V, E89A, T93V
VL: B1 VL
notes: as for B1
B4: 7A6 VH3/Vκ2 humanized antibody (human IgG1, kappa) (antibody, V domains shown)
VH: B1 VH with D1Q, I68V
VL: B1 VL
notes: as for B1
B5: 7A6 VH5/Vκ4 humanized antibody (human IgG1, kappa) (antibody, V domains shown)
VH: B1 VH with D1Q, I68V, R72V, E89A, T93V
VL: B1 VL with V3Q, S20T, K24R, T63S
notes: as for B1
B6: 7A6 VH5/Vκ2 humanized antibody (human IgG1, kappa) (antibody, V domains shown)
VH: B1 VH with D1Q, I68V, R72V, E89A, T93V
VL: B1 VL
notes: as for B1
B7: 7A6 VH2/Vκ3 humanized antibody (human IgG1, kappa) (antibody, V domains shown)
VH: B1 VH
VL: B1 VL with V3Q, T63S
notes: as for B1
B8: 7A6 VH5/Vκ5 humanized antibody (human IgG1, kappa) (antibody, V domains shown)
VH: B1 VH with D1Q, I68V, R72V, E89A, T93V
VL: B1 VL with V3Q, T63S, A80P, V83F, V85T
notes: as for B1
B9: 7A6 VH2/Vκ5 humanized antibody (human IgG1, kappa) (antibody, V domains shown)
VH: B1 VH
VL: B1 VL with V3Q, T63S, A80P, V83F, V85T
notes: as for B1
B10: 7A6 VH4/Vκ5 humanized antibody (human IgG1, kappa) (antibody, V domains shown)
VH: B1 VH with D1Q, I68V, E89A, T93V
VL: B1 VL with V3Q, T63S, A80P, V83F, V85T
notes: as for B1
B11: 7A6 VH5/Vκ1 humanized antibody (human IgG1, kappa) (antibody, V domains shown)
VH: B1 VH with D1Q, I68V, R72V, E89A, T93V
VL: B1 VL with P8H, S10F, R45E, I106M
notes: as for B1
B12: 7A6 VH3/Vκ1 humanized antibody (human IgG1, kappa) (antibody, V domains shown)
VH: B1 VH with D1Q, I68V
VL: B1 VL with P8H, S10F, R45E, I106M
notes: as for B1
B13: 7A6 VH5/Vκ3 humanized antibody (human IgG1, kappa) (antibody, V domains shown)
VH: B1 VH with D1Q, I68V, R72V, E89A, T93V
VL: B1 VL with V3Q, T63S
notes: as for B1
B14: 7A6 VH4/Vκ3 humanized antibody (human IgG1, kappa) (antibody, V domains shown)
VH: B1 VH with D1Q, I68V, E89A, T93V
VL: B1 VL with V3Q, T63S
notes: as for B1
B15: 7A6 VH3/Vκ4 humanized antibody (human IgG1, kappa) (antibody, V domains shown)
VH: B1 VH with D1Q, I68V
VL: B1 VL with V3Q, S20T, K24R, T63S
notes: as for B1
B16: 7A6 VH2/Vκ4 humanized antibody (human IgG1, kappa) (antibody, V domains shown)
VH: B1 VH
VL: B1 VL with V3Q, S20T, K24R, T63S
notes: as for B1
B17: anti-TIGIT 7A6 VH3/Vk5 humanized antibody (human IgG1, kappa) (antibody, V domains shown)
VH: B1 VH with D1Q, I68V
VL: B1 VL with V3Q, T63S, A80P, V83F, V85T
notes: also called VH3Vκ5; 7A6 VH3/Vk5-IgG1
B18: 7A6 VH4/Vκ4 humanized antibody (human IgG1, kappa) (antibody, V domains shown)
VH: B1 VH with D1Q, I68V, E89A, T93V
VL: B1 VL with V3Q, S20T, K24R, T63S
notes: also called 7A6 VH4/Vk4; 7A6VH4/Vk4
B19: 7A6 VH4/Vκ1 humanized antibody (human IgG1, kappa) (antibody, V domains shown)
VH: B1 VH with D1Q, I68V, E89A, T93V
VL: B1 VL with P8H, S10F, R45E, I106M
notes: as for B1
B20: TIG1 Arcus (antibody, from another filing, V domains shown)
VH: DVQLVESGGGLVQPGGSRKLSCAASGFTFSNFGMHWVRQAPEKGLEWVAFISSGSSSIYYADTVKGRFTISRDNPKNTLFLQMTSLRSEDTAMYYCARMRLDYYAMDYWGQGTSVTVSS
VL: DVQITQSPSYLAASPGETITINCRASKSISKYLAWYQEKPGKTNKLLIYSGSTLQSGIPSRFSGSGSGTDFTLTISSLEPEDFAMYYCQQHNEYPWTFGGGTKLEIK

Experiments:
[1] = biological target: T1, TIGIT on cells (human primary T cells, PBMC, NK cells; Promega TIGIT effector cells) (human) (UniProt Q495A1)
T1 sequence: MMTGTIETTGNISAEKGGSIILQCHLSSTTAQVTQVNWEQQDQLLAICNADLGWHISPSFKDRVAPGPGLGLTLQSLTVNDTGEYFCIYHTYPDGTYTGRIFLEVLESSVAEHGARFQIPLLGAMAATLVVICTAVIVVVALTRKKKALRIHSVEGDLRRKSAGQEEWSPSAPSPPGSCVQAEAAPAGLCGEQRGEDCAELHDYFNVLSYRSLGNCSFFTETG

[2] = biological target: T2, recombinant human TIGIT (Sino Biological) (human, UniProt Q495A1 22-138); assay: SPR single cycle kinetics; KD divided by KD of the VH0/Vκ0 chimeric antibody;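 further: biacore T200 SPR at 25 °C, IgG captured on anti-human chip, TIGIT analyte in four rising concentrations, 210 s association each, 900 s dissociation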
T2 construct: Bought protein; NP_776160.2; also called human TIGIT antigen; hTIGIT
T2 sequence: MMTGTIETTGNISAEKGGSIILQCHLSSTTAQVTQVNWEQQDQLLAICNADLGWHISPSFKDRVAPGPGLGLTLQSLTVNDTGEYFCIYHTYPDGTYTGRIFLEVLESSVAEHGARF

[3] = biological target: T2, recombinant human TIGIT (Sino …); assay: SPR (Biacore T200), single cycle kinetics, IgG from supernatant captured on anti-human chip, TIGIT as analyte, 1:1 fit;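 further: measured at 25 °C in HBS-P+ with 1% BSA, four ascending TIGIT concentrations, 210 s association per step, one final 900 s dissociation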
[4] = biological target: T3, recombinant human TIGIT (Acrobiosystems) (human, UniProt Q495A1 22-141); assay: SPR (Biacore T200), multi-cycle kinetics, purified IgG captured on anti-human IgG CM5 chip, TIGIT as analyte, 1:1 fit
T3 construct: Bought protein; also called hTIGIT; human TIGIT antigen
T3 sequence: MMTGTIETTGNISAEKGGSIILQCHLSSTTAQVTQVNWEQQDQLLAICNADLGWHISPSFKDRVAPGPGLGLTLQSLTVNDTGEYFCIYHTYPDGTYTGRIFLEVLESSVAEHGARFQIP

[5] = biological target: T4, TIGIT on cells (human primary T cells, PBMC, NK cells; Promega TIGIT effector cells) (human, UniProt Q495A1 22-244); assay: cell-based or functional assay
T4 sequence: T1 sequence

[6] = biological target: T4, TIGIT on cells (human primary T cells, …); assay: cell-based or functional assay; remark: listed apart in the source
[7] = biological target: T4, TIGIT on cells (human primary T cells, …); assay: cell-based or functional assay; remark: listed apart in the source
[8] = biological target: T4, TIGIT on cells (human primary T cells, …); assay: cell-based or functional assay; remark: listed apart in the source
[9] = biological target: T1, TIGIT on cells (human primary T cells, PBMC, NK cells; Promega TIGIT effector cells) (human); remark: listed apart in the source
[10] = biological target: T1, TIGIT on cells (human primary T cells, PBMC, NK cells; Promega TIGIT effector cells) (human); remark: listed apart in the source

| Molecule | Relative KD [2] | Kd [3] [nM] | koff [3] [s⁻¹] | kon [3] [M⁻¹ s⁻¹] | other results |
| --- | --- | --- | --- | --- | --- |
| MBSA43 control (antibody) | – | – | – | – | EC50, NFAT reporter luminescence (TIGIT effector cells + CD155 aAPC/CHO-K1 cells; blocked ligand PVR/CD155) [1]: 1.24 µg/mL |
| B1 | 1.47 | 0.961 | 0.00158 | 1.65e+06 | – |
| B2 | 1 | 0.652 | 0.0016 | 2.46e+06 | Kd [4]: 0.077 nM; koff [4]: 0.000176 s⁻¹; kon [4]: 2.28e+06 M⁻¹ s⁻¹ |
| B3 | 1.63 | 1.06 | 0.00185 | 1.75e+06 | – |
| B4 | 1.48 | 0.963 | 0.00173 | 1.8e+06 | – |
| B5 | 2.33 | 1.52 | 0.00181 | 1.19e+06 | – |
| B6 | 2.55 | 1.66 | 0.00204 | 1.23e+06 | – |
| B7 | 1.38 | 0.897 | 0.00134 | 1.49e+06 | – |
| B8 | 1.92 | 1.25 | 0.0017 | 1.36e+06 | – |
| B9 | 1.16 | 0.754 | 0.0013 | 1.72e+06 | – |
| B10 | 1.41 | 0.922 | 0.00162 | 1.76e+06 | – |
| B11 | 1.32 | 0.858 | 0.00124 | 1.45e+06 | – |
| B12 | 1.1 | 0.715 | 0.00155 | 2.17e+06 | – |
| B13 | 2.32 | 1.51 | 0.00189 | 1.25e+06 | – |
| B14 | 1.45 | 0.944 | 0.00175 | 1.85e+06 | – |
| B15 | 1.84 | 1.2 | 0.00196 | 1.63e+06 | – |
| B16 | 1.58 | 1.03 | 0.00181 | 1.75e+06 | – |
| B17 | 1.34 | 0.871 | 0.00161 | 1.85e+06 | EC50 of the mixture with nivolumab (both antibodies at the same concentration), NFAT reporter luminescence (PD-1+TIGIT+ effector cells + PD-L1+CD155 aAPC/CHO-K1 cells) [5]: 0.581 µg/mL; EC50 of the mixture with nivolumab (both antibodies at the same concentration), NFAT reporter luminescence (PD-1+TIGIT+ effector cells + PD-L1+CD155 aAPC/CHO-K1 cells) [6]: 0.594 µg/mL; EC50 of the mixture with pembrolizumab (both antibodies at the same concentration), NFAT reporter luminescence (PD-1+TIGIT+ effector cells + PD-L1+CD155 aAPC/CHO-K1 cells) [6]: 0.38 µg/mL; EC50, NFAT reporter luminescence (TIGIT effector cells + CD155 aAPC/CHO-K1 cells; blocked ligand PVR/CD155) [7]: 0.521 µg/mL; EC50 of the mixture with pembrolizumab (both antibodies at the same concentration), NFAT reporter luminescence (PD-1+TIGIT+ effector cells + PD-L1+CD155 aAPC/CHO-K1 cells) [8]: 0.399 µg/mL; Kd [4]: 0.0867 nM; koff [4]: 0.000177 s⁻¹; kon [4]: 2.04e+06 M⁻¹ s⁻¹ |
| B18 | 1.98 | 1.29 | 0.00192 | 1.49e+06 | – |
| B19 | 0.94 | 0.616 | 0.00107 | 1.73e+06 | – |
| B20 | – | – | – | – | EC50, NFAT reporter luminescence (TIGIT effector cells + CD155 aAPC/CHO-K1 cells; blocked ligand PVR/CD155) [1]: 3.74 µg/mL; EC50 of the mixture with pembrolizumab (both antibodies at the same concentration), NFAT reporter luminescence (PD-1+TIGIT+ effector cells + PD-L1+CD155 aAPC/CHO-K1 cells) [9]: 0.611 µg/mL; EC50 of the mixture with nivolumab (both antibodies at the same concentration), NFAT reporter luminescence (PD-1+TIGIT+ effector cells + PD-L1+CD155 aAPC/CHO-K1 cells) [10]: 0.923 µg/mL |
